Measured values reported in the supplement of paper PMC7877785.
± gives the uncertainty stated by the source.

Assay: self-splicing fitness, log relative to wild type (ln ratio); higher = more splicing; Tetrahymena group I intron in knt gene, E. coli kanamycin selection, DiMSum; sequences stand for … in CUCUCU…GGAGGGAAAAGUUAUCAGGCAUGCACCUGGUAGCUAGUCUUUAAACCAAUAGAUUGCAUCGGUUUAAAAGGCAAGACCGUCAAAUUGCGGGAAAGGGGUCAACAGCCGUUCAGUACCAAGUCUCAGGGGAAACUUUGAGAUGGCCUUGCAAAGGGUAUGGUAAUAAGCUGACGGACAUGGUCCUAACCACGCAGCCAAGUCCUAAGUCAACAGAUCUUCUGUUGAUAUGGAUGCAGUUCACAGACUAAAUGUCGGUCGGGGAAGAUGUAUUCUUCUCAUAAGAUAUAGUCGGACCUCUCCUUAAUGGGAGCUAGCGGAUGAAGUGAUGCAACACUGGAGCCGCUGGGAACUAAUUUGUAUGCGAAAGUAUAUUGAUUAGUUUUGGAGUACUCGUGGUCG
Outline: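 A randomised library covering all eight P1ex-region intron nucleotides was built with the intron in the knt kanamycin-resistance gene on pET-22b(+) and held in E. coli BL21(DE3). Cells were grown overnight at 37°C or 30°C on LB agar, with or without 25 μg/mL kanamycin, plus 100 μg/mL carbenicillin, 50 μM IPTG and 0.2% rhamnose, and pooled colonies were amplicon-sequenced on an Illumina HiSeq 2500. DiMSum fitness is the error-weighted combination of wild-type-normalised replicate fold changes, kanamycin versus none.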

Sequence | self-splicing fitness (ln) (30 °C) | self-splicing fitness (ln) (37 °C)
CUACAGCAAUAUUACGUGAA | -4.26 ± 0.19 | -2.08 ± 0.17
CUACAGCAAUAUUACGUGGU | -3.31 ± 0.22 | -3.03 ± 0.28
CUACAGCAAUAUUACGUGUG | -1.63 ± 0.055 | -0.0421 ± 0.061
CUACAGCAAUAUUACGUUAA | -3.48 ± 0.21 | -2.94 ± 0.2
CUACAGCAAUAUUACGUUGG | -3.51 ± 0.15 | -2.45 ± 0.14
CUAGAGCAAUAUUACGAAUA | -3.49 ± 0.48 | -1.86 ± 0.34
CUAGAGCAAUAUUACGAGGC | -3.08 ± 0.26 | -1.02 ± 0.23
CUAGAGCAAUAUUACGAGGG | -2.12 ± 0.19 | -1.73 ± 0.33
CUAGAGCAAUAUUACGAGUU | -3.23 ± 0.31 | -2.36 ± 0.3
CUAGAGCAAUAUUACGAUAC | -2.63 ± 0.35 | -2.25 ± 0.34
CUAGAGCAAUAUUACGAUAG | -0.96 ± 0.1 | 0.0398 ± 0.18
CUAGAGCAAUAUUACGAUCA | -2.35 ± 0.45 | –
CUAGAGCAAUAUUACGAUUC | -2.96 ± 0.29 | -2.75 ± 0.48
CUAGAGCAAUAUUACGCAAC | -1.32 ± 0.22 | –
CUAGAGCAAUAUUACGCCAA | -0.987 ± 0.2 | -2.54 ± 0.41
CUAGAGCAAUAUUACGCUGU | -3.92 ± 0.37 | -2.69 ± 0.36
CUAGAGCAAUAUUACGGAUA | – | -1.44 ± 0.4
CUAGAGCAAUAUUACGGCCU | -2.72 ± 0.44 | -1.69 ± 0.44
CUAGAGCAAUAUUACGGGCG | 0.0237 ± 0.11 | 0.638 ± 0.14
CUAGAGCAAUAUUACGGGUG | 0.162 ± 0.073 | -0.643 ± 0.082
CUAGAGCAAUAUUACGGGUU | -4.2 ± 0.29 | -2.33 ± 0.23
CUAGAGCAAUAUUACGGUCU | – | -3.69 ± 0.34
CUAGAGCAAUAUUACGUAUU | -3.42 ± 0.17 | -3.03 ± 0.26
CUAGAGCAAUAUUACGUCCG | -0.472 ± 0.087 | -0.0677 ± 0.14
CUAGAGCAAUAUUACGUCUG | 0.15 ± 0.094 | 0.417 ± 0.11
CUAUAGCAAUAUUACGAACC | -2.11 ± 0.49 | –

Sequence | self-splicing fitness (ln) (30 °C) | self-splicing fitness (ln) (37 °C)
CUAUAGCAAUAUUACGACCU | -2.85 ± 0.42 | –
CUAUAGCAAUAUUACGACGG | 0.143 ± 0.13 | 0.155 ± 0.15
CUAUAGCAAUAUUACGACUG | 0.0686 ± 0.17 | -0.119 ± 0.17
CUAUAGCAAUAUUACGAUAC | – | -2.61 ± 0.33
CUAUAGCAAUAUUACGAUCA | -3.08 ± 0.33 | 0.388 ± 0.31
CUAUAGCAAUAUUACGCCAG | -1.83 ± 0.18 | -0.622 ± 0.25
CUAUAGCAAUAUUACGCCUU | – | -2.27 ± 0.39
CUAUAGCAAUAUUACGGACG | 0.217 ± 0.093 | 0.437 ± 0.12
CUAUAGCAAUAUUACGGCGU | -4.65 ± 0.46 | -2.24 ± 0.43
CUAUAGCAAUAUUACGGGGA | -2.58 ± 0.17 | -2.87 ± 0.31
CUAUAGCAAUAUUACGGGUA | -2.54 ± 0.19 | -2.34 ± 0.21
CUAUAGCAAUAUUACGGUGG | -3.27 ± 0.24 | -2.22 ± 0.25
CUAUAGCAAUAUUACGUGGU | -3.34 ± 0.23 | -2.76 ± 0.2
CUAUAGCAAUAUUACGUGUC | -4.02 ± 0.24 | -3.09 ± 0.27
CUAUAGCAAUAUUACGUUUA | -3.4 ± 0.36 | -1.74 ± 0.19
CUCAAGCAAUAUUACGAAUC | – | -1.91 ± 0.3
CUCAAGCAAUAUUACGACUA | -2.02 ± 0.31 | -2.64 ± 0.34
CUCAAGCAAUAUUACGAUCG | -1.26 ± 0.1 | -0.0967 ± 0.13
CUCAAGCAAUAUUACGAUGG | -1.28 ± 0.061 | 0.0609 ± 0.08
CUCAAGCAAUAUUACGAUUG | -3.85 ± 0.18 | -2.5 ± 0.17
CUCAAGCAAUAUUACGCAAA | -3.82 ± 0.31 | -2.47 ± 0.25
CUCAAGCAAUAUUACGCAAC | -2.65 ± 0.36 | –
CUCAAGCAAUAUUACGCAUG | -4.22 ± 0.36 | -1.65 ± 0.18
CUCAAGCAAUAUUACGCCAU | – | -1.99 ± 0.37
CUCAAGCAAUAUUACGCCCU | -3.13 ± 0.44 | -1.36 ± 0.36
